Data as given in patent US20130029902A1 (PHARIS BIOTECH, published 2013).

B1: ALB408-413 (peptide)
peptide: LVRYTK
notes: Synthetic fragment of human serum albumin
B2: ALB408-423 (peptide)
peptide: LVRYTKKVPQVSTPTL
notes: also called Human circulating antiviral albumin fragment; wild type peptide

How the values were obtained:
[1] = target: T1, EGFP-hCXCR4 (human, UniProt P61073 1-352); assay: competition with CXCL12-Tr on CXCR4 expressing HEK293 cells, FRET
Procedure: (§1) The CXCR4 receptor is stably transfected in Human Embryonic Kidney (HEK) cells as a fusion protein with the EGFP fluorescent protein fused to the extracellular amino-terminal part of the receptor (EGFP-CXCR4). The human chemokines CXCL12 and CXCL12-TexasRed were synthesized as described (Amara et al., 1999, JBC 274:23916-23925; Valenzuela-Fernandez, et al., 2001, JBC 276:26550-26558). Real-time fluorescence monitoring of ligand-receptor interactions was performed as followed: HEK293 cells expressing the fusion receptor, EGFP-hCXCR4, were harvested in phosphate-buffered saline supplemented with 5 mM EDTA, pH 7.4, centrifuged and resuspended in HEPES-bovine serum albumin buffer (10 mM HEPES, 137.5 mM NaCl, 1.25 mM MgCl2, 1.25 mM CaCl2, 6 mM KCl, 10 mM glucose, 0.4 mM NaH2PO4, 1% bovine serum albumin (w/v), pH 7.4) supplemented with protease inhibitors (40 μg/mL bestatin and bacitracin, 20 μg/mL phosphoramidon, 50 μg/mL chymostatin, and 1 μg/mL leupeptin). […] Time-based recordings of the fluorescence emitted at 510 nm (excitation at 470 nm) were performed at 21° C. using a spectrofluorimeter (fluorolog 2, Spex) and sampled every 0.3 s. Fluorescence binding measurements were initiated by adding at 30 seconds 100 nM of CXCL12-TR to 1 mL cell suspension. […] Then, CXCL12-TR (100 nM) was added and fluorescence was recorded until equilibrium was reached (300 sec). […]

[2] = target: CXCR4 (UniProt P61073 1-352, limits assumed); assay: cell-based or functional assay
[3] = target: T1, EGFP-hCXCR4; assay: competition with 100 nM CXCL12-TR on HEK293 cells expressing EGFP-hCXCR4, FRET
Procedure: as §1

T1 sequence (P61073 whole entry, the tested form may be a part): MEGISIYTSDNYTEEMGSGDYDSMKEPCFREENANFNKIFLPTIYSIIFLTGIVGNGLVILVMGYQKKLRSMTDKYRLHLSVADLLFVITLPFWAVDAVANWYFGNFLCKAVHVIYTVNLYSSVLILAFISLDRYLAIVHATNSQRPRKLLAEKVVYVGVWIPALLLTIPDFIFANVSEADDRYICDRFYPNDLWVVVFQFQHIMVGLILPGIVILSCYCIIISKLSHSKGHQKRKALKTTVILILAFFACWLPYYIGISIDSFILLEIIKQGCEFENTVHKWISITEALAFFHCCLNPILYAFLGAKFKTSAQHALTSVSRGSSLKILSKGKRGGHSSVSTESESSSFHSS

Binder | Kd [1] | IC50, HIV-1 NL4-3 infection of TZM-bl cells (fraction 31 from hemofiltrate) [2] | IC50, X4 tropic HIV-1 and HIV-2 infection of TZM-bl cells [2] | mean IC50, infection of TZM-bl cells by X4-tropic HIV-1 variants [2] | EC50 [3] | Ki [3]
B1 | > 200 µM |  |  |  |  | 
B2 |  | 21.4 mg/L | 10 to 20 µM | 24.2 mg/L | 8 µM | 3 µM
